Assay in all cases: cell_activity
Data set [1] concerns 8196zDR D450N D483R,D450N (FokI) (synthetic construct). Conditions: TI with 8267RD; NHEJ 0.0.
The subject of data set [2] is 8196zDR D467A D483R,D467A (FokI) (synthetic construct). Conditions: TI with 8267RD; NHEJ 0.0.
Data set [3] deals with 8196zDR D483R (FokI) (synthetic construct). The following applies: NHEJ with 8267RD; TI 28.4%.
Data set [4] concerns 8196zKK (ZFN-R-KK) E490K,I538K (FokI) (synthetic construct). Conditions: NHEJ with 8267EL; TI 29.4%; K562.
In data set [5] the test system is 8196zKK D467A E490K,I538K,D467A (FokI) (synthetic construct). Conditions: TI with 8267EL; NHEJ 0.0.
Data set [6] deals with 8267RD R487D (FokI) (synthetic construct). Conditions: NHEJ with 8196zDR; TI 28.4%.

On to CCR5 endogenous locus (K562), for which the activity in data set [1] stood at 1.2%; in data set [2], 0.7%; in data set [3], 36.7%; in data set [4] it was 54.3%; in data set [5], 1.1%; in data set [6], 36.7%.

The values are drawn from US20100047805.
